From patent US20250213684A1, “COMBINATION THERAPIES COMPRISING ANTIBODY MOLECULES TO TIM-3” (Novartis AG, priority 2015, published 2025)

Key:
[1] = biological target: huTIM-3/his (human) (UniProt Q8TDQ0); assay: Biacore, 1st antibody injection on hTIM-3/his captured by anti-His antibody
[2] = biological target: huTIM-3/his (human) (UniProt Q8TDQ0); assay: Biacore, 2nd antibody injection; 1st antibody (competitor) ABTIM3-hum11
[3] = biological target: huTIM-3/his (human) (UniProt Q8TDQ0); assay: Biacore, 2nd antibody injection; 1st antibody (competitor) ABTIM3-hum03
[4] = biological target: huTIM-3/his (human) (UniProt Q8TDQ0); assay: Biacore, 2nd antibody injection; 1st antibody (competitor) ABTIM3-hum21
[5] = biological target: huTIM-3/his (human) (UniProt Q8TDQ0); assay: Biacore, 2nd antibody injection; 1st antibody (competitor) huIgG1

Substance: human IgG1 isotype control (antibody)
- change in RU [1]: 0.27 RU
- change in RU [2]: 3.8 RU
- change in RU [3]: 4.5 RU
- change in RU [4]: 4.5 RU
- change in RU [5]: 3.6 RU
